Read-outs that look alike come from different tables or passages of the source.
T1: ADAMTS4 (human, UniProt O75173 213-685, limits assumed)
T1 sequence (looked up): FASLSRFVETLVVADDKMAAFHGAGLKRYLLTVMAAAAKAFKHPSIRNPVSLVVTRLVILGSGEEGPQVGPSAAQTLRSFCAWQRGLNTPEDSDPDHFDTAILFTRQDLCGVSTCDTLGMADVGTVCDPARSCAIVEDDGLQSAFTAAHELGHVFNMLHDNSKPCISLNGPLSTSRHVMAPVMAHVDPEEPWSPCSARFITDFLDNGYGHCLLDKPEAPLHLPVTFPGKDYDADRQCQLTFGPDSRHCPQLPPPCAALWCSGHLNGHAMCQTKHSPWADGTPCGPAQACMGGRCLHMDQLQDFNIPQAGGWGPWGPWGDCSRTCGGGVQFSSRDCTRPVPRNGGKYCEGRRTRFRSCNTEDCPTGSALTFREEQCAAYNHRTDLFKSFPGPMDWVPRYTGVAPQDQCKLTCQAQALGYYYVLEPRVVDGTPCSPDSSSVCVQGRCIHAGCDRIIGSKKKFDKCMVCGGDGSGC

T2: ADAMTS5 (human, UniProt Q9UNA0 262-622, limits assumed)
T2 sequence (looked up): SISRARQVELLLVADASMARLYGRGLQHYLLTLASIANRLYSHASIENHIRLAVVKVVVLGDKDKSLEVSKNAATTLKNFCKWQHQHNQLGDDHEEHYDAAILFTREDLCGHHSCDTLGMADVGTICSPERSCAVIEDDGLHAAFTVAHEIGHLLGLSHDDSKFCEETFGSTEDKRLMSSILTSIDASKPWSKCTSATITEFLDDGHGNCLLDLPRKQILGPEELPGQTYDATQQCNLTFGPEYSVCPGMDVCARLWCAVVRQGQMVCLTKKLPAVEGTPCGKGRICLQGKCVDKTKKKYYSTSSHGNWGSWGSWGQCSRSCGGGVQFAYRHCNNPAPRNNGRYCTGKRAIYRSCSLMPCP

T3: MMP7 (UniProt P09237 95-267, limits assumed)
T3 sequence (looked up): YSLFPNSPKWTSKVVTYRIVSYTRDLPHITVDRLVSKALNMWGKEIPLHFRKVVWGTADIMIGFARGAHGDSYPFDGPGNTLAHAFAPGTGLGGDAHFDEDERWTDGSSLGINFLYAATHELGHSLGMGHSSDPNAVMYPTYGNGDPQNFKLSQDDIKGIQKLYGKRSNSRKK

T4: MMP2 (human, UniProt P08253 110-660, limits assumed)
T4 sequence (looked up): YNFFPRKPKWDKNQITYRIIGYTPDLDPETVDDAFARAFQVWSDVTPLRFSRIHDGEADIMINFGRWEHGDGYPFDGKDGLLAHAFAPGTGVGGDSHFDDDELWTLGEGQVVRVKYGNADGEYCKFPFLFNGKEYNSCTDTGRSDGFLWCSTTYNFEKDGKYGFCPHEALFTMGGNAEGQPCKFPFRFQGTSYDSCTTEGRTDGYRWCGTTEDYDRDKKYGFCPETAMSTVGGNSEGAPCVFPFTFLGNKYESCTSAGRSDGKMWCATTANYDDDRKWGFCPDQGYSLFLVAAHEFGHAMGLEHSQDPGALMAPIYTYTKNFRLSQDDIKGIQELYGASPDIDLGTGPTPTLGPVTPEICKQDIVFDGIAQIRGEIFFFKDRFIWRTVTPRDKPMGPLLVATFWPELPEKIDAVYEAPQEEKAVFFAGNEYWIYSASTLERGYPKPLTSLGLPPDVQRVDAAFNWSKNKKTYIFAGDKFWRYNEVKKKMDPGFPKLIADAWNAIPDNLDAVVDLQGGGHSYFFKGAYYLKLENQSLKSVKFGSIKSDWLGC

T5: Cathepsin G (UniProt P08311 21-244)
T5 sequence (looked up): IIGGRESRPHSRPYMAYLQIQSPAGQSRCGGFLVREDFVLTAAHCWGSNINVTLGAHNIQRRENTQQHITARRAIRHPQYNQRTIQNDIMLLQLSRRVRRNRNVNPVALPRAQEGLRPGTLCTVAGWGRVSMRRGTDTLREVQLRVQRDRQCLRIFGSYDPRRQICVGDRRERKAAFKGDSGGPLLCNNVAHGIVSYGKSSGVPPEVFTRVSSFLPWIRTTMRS

T6: MMP1 (human, UniProt P03956 100-469, limits assumed)
T6 sequence (looked up): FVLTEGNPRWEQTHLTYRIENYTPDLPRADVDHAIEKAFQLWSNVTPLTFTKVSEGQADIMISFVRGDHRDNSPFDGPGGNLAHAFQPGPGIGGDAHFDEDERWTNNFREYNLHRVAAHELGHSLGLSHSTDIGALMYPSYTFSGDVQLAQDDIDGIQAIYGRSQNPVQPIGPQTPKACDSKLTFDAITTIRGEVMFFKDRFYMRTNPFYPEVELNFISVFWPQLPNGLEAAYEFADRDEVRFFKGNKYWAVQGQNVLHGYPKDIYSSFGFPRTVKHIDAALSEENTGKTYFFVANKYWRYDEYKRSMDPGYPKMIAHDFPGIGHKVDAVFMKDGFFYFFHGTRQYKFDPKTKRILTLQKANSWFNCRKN


Tests used:
Assay in all cases: cell-based or functional assay
ADAMTS4 = target: T1, ADAMTS4
ADAMTS5 = target: T2, ADAMTS5
MMP7 = target: T3, MMP7
MMP9 = MMP9 (human, UniProt P14780 107-707, limits assumed)
Sequence of MMP9 (P14780 107-707 limits assumed): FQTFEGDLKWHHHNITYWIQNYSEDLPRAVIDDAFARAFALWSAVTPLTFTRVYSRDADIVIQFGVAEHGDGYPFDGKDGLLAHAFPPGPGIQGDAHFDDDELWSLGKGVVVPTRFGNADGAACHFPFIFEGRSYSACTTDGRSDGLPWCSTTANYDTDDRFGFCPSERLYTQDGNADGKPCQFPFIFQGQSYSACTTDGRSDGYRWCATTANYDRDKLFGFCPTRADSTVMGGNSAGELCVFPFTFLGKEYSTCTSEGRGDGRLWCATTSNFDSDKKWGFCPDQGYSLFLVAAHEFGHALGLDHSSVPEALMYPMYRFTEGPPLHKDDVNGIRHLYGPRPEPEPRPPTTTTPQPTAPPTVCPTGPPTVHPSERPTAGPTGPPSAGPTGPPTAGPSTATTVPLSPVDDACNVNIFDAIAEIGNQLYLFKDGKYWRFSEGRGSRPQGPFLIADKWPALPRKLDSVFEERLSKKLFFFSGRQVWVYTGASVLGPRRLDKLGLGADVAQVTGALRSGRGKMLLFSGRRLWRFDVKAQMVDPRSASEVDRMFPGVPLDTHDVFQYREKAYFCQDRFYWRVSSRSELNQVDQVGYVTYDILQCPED

MMP2 [1] = target: T4, MMP2
MMP8 = MMP8 (human, UniProt P22894 101-467, limits assumed)
Sequence of MMP8 (P22894 101-467 limits assumed): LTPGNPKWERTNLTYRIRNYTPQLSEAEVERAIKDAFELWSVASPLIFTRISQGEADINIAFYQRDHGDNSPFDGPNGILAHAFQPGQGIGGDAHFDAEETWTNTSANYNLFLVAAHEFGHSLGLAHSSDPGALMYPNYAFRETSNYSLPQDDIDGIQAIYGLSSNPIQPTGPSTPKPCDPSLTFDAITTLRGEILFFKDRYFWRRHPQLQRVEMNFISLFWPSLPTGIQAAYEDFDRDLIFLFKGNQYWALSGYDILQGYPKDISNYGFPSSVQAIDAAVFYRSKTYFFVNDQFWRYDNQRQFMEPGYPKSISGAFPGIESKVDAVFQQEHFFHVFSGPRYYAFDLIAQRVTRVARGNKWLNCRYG

MMP3 = MMP3 (human, UniProt P08254 100-477, limits assumed)
Sequence of MMP3 (P08254 100-477 limits assumed): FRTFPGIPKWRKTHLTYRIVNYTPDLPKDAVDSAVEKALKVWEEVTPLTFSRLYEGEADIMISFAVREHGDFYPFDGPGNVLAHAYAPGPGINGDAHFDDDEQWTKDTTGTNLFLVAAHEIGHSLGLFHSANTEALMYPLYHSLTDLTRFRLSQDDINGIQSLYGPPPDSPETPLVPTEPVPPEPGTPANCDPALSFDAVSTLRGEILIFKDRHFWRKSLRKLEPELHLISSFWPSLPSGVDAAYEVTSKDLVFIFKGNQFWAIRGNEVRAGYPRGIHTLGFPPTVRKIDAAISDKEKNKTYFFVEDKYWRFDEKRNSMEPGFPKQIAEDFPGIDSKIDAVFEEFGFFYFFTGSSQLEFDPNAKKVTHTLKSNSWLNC

Elastase [2] = target: Elastase
Cathepsin G = target: T5, Cathepsin G
MMP1 [3] = target: T6, MMP1
MMP13 = MMP13 (human, UniProt P45452 104-471, limits assumed)
MMP2 [4] = target: T4, MMP2; remark: listed apart in the source
MMP1 [5] = target: T6, MMP1; remark: listed apart in the source
Elastase [6] = target: Elastase; remark: listed apart in the source

Protease Inhibition (% of WT) (ADAMTS4)	Protease Inhibition (% of WT) (ADAMTS5)	Protease Inhibition (% of WT) (MMP7)	Protease Inhibition (% of WT) (MMP9)	Protease Inhibition (% of WT) (MMP2 [1])	Protease Inhibition (% of WT) (MMP8)	Protease Inhibition (% of WT) (MMP3)	Protease Inhibition (% of WT) (Elastase [2])	Protease Inhibition (% of WT) (Cathepsin G)	Protease Inhibition (% of WT) (MMP1 [3])	Protease Inhibition (% of WT) (MMP13)	Protease Inhibition (% of WT) (MMP2 [4])	Protease Inhibition (% of WT) (MMP1 [5])	Protease Inhibition (% of WT) (Elastase [6])	Binder
83 % of WT	183 % of WT	157 % of WT	41 % of WT	59 % of WT	77 % of WT	40 % of WT	115 % of WT	139 % of WT	116 % of WT	143 % of WT				Variant A2M, bait region SEQ ID NO 15 (other) SVSGKPQYMVLVPSLLHTETTEKGCVLLSYLNETVTVSASLESVRGNRSLFTDLEAENDVLHCVAFAVPKSSSNEEVMFLTVQVKGPTQEFKKRTTVMVKNEDSLVFVQTDKSIYKPGQTVKFRVVSMDENFHPLNELIPLVYIQDPKGNRIAQWQSFQLEGGLKQFSFPLSSEPFQGSYKVVVQKKSGGRTEHPFTVEEFVLPKFEVQVTVPKIITILEEEMNVSVCGLYTYGKPVPGHVTVSICRKYSDASDCHGEDSQAFCEKFSGQLNSHGCFYQQVKTKVFQLKRKEYEMKLHTEAQIQEEGTVVELTGRQSSEITRTITKLSFVKVDSHFRQGIPFFGQVRLVDGKGVPIPNKVIFIRGNEANYYSNATTDEHGLVQFSINTTNVMGTSLTVRVNYKDRSPCYGYQWVSEEHEEAHHTAYLVFSPSKSFVHLEPMSHELPCGHTQTVQAHYILNGGTLLGLKKLSFYYLIMAKGGIVRTGTHGLLVKQEDMKGHFSISIPVKSDIAPVARLLIYAVLPTGDVIGDSAKYDVENCLANKVDLSFSPSQSLPASHAHLRVTAAPQSVCALRAVDQSVLLMKPDAELSASSVYNLLPEKDLTGFPGPLNDQDDEDCINRHNVYINGITYTPVSSTNEKDMYSFLEDMGLKAFTNSKIRKPKMCPQLEHGPEGEGEGEGIPENFFGVSEDLVVQISELEGRGSRYLTAVEEPHTKLRKYFPETWIWDLVVVNSAGVAEVGVTVPDTITEWKAGAFCLSEDAGLGISSTASLRAFQPFFVELTMPYSVIRGEAFTLKATVLNYLPKCIRVSVQLEASPAFLAVPVEKEQAPHCICANGRQTVSWAVTPKSLGNVNFTVSAEALESQELCGTEVPSVPEHGRKDTVIKPLLVEPEGLEKETTFNSLLCPSGGEVSEELSLKLPPNVVEESARASVSVLGDILGSAMQNTQNLLQMPYGCGEQNMVLFAPNIYVLDYLNETQQLTPEIKSKAIGYLNTGYQRQLNYKHYDGSYSTFGERYGRNQGNTWLTAFVLKTFAQARAYIFIDEAHITQALIWLSQRQKDNGCFRSSGSLLNNAIKGGVEDEVTLSAYITIALLEIPLTVTHPVVRNALFCLESAWKTAQEGDHGSHVYTKALLAYAFALAGNQDKRKEVLKSLNEEAVKKDNSVHWERPQKPKAPVGHFYEPQAPSAEVEMTSYVLLAYLTAQPAPTSEDLTSATNIVKWITKQQNAQGGFSSTQDTVVALHALSKYGAATFTRTGKAAQVTIQSSGTFSSKFQVDNNNRLLLQQVSLPELPGEYSMKVTGEGCVYLQTSLKYNILPEKEEFPFALGVQTLPQTCDEPKAHTSFQISLSVSYTGSRSASNMAIVDVKMVSGFIPLKPTVKMLERSNHVSRTEVSSNHVLIYLDKVSNQTLSLFFTVLQDVPVRDLKPAIVKVYDYYETDEFAIAEYNAPCSKDLGNADYKDDDDKGASHHHHHH
											20 % of WT	200 % of WT	75 % of WT	Variant A2M, bait region SEQ ID NO 129 (other) SVSGKPQYMVLVPSLLHTETTEKGCVLLSYLNETVTVSASLESVRGNRSLFTDLEAENDVLHCVAFAVPKSSSNEEVMFLTVQVKGPTQEFKKRTTVMVKNEDSLVFVQTDKSIYKPGQTVKFRVVSMDENFHPLNELIPLVYIQDPKGNRIAQWQSFQLEGGLKQFSFPLSSEPFQGSYKVVVQKKSGGRTEHPFTVEEFVLPKFEVQVTVPKIITILEEEMNVSVCGLYTYGKPVPGHVTVSICRKYSDASDCHGEDSQAFCEKFSGQLNSHGCFYQQVKTKVFQLKRKEYEMKLHTEAQIQEEGTVVELTGRQSSEITRTITKLSFVKVDSHFRQGIPFFGQVRLVDGKGVPIPNKVIFIRGNEANYYSNATTDEHGLVQFSINTTNVMGTSLTVRVNYKDRSPCYGYQWVSEEHEEAHHTAYLVFSPSKSFVHLEPMSHELPCGHTQTVQAHYILNGGTLLGLKKLSFYYLIMAKGGIVRTGTHGLLVKQEDMKGHFSISIPVKSDIAPVARLLIYAVLPTGDVIGDSAKYDVENCLANKVDLSFSPSQSLPASHAHLRVTAAPQSVCALRAVDQSVLLMKPDAELSASSVYNLLPEKDLTGFPGPLNDQDDEDCINRHNVYINGITYTPVSSTNEKDMYSFLEDMGLKAFTNSKIRKPKMCPQLEQYEMHGPEAIPMSIPTEGEGEGEGIPENFFGVSEDLVVQIVEEPHTKLRKYFPETWIWDLVVVNSAGVAEVGVTVPDTITEWKAGAFCLSEDAGLGISSTASLRAFQPFFVELTMPYSVIRGEAFTLKATVLNYLPKCIRVSVQLEASPAFLAVPVEKEQAPHCICANGRQTVSWAVTPKSLGNVNFTVSAEALESQELCGTEVPSVPEHGRKDTVIKPLLVEPEGLEKETTFNSLLCPSGGEVSEELSLKLPPNVVEESARASVSVLGDILGSAMQNTQNLLQMPYGCGEQNMVLFAPNIYVLDYLNETQQLTPEIKSKAIGYLNTGYQRQLNYKHYDGSYSTFGERYGRNQGNTWLTAFVLKTFAQARAYIFIDEAHITQALIWLSQRQKDNGCFRSSGSLLNNAIKGGVEDEVTLSAYITIALLEIPLTVTHPVVRNALFCLESAWKTAQEGDHGSHVYTKALLAYAFALAGNQDKRKEVLKSLNEEAVKKDNSVHWERPQKPKAPVGHFYEPQAPSAEVEMTSYVLLAYLTAQPAPTSEDLTSATNIVKWITKQQNAQGGFSSTQDTVVALHALSKYGAATFTRTGKAAQVTIQSSGTFSSKFQVDNNNRLLLQQVSLPELPGEYSMKVTGEGCVYLQTSLKYNILPEKEEFPFALGVQTLPQTCDEPKAHTSFQISLSVSYTGSRSASNMAIVDVKMVSGFIPLKPTVKMLERSNHVSRTEVSSNHVLIYLDKVSNQTLSLFFTVLQDVPVRDLKPAIVKVYDYYETDEFAIAEYNAPCSKDLGNADYKDDDDKGASHHHHHH

From US20230250154A1 (CYTONICS, published 2023)
